T1: hMCT1/hBSG (Homo sapiens)
T1 chain 1: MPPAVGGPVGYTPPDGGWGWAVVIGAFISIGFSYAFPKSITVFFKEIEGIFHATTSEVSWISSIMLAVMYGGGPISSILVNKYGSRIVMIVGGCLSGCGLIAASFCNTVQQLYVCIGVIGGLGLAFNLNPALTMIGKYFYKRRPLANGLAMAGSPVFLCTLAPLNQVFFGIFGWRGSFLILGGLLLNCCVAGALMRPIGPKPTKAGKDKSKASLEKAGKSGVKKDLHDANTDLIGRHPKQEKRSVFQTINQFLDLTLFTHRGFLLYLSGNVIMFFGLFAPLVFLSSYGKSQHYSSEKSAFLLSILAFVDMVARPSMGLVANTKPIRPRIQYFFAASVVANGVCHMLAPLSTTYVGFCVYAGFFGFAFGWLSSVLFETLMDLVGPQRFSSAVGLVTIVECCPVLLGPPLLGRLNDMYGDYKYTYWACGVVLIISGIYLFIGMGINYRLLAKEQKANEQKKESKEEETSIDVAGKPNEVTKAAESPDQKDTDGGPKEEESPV
T1 chain 2: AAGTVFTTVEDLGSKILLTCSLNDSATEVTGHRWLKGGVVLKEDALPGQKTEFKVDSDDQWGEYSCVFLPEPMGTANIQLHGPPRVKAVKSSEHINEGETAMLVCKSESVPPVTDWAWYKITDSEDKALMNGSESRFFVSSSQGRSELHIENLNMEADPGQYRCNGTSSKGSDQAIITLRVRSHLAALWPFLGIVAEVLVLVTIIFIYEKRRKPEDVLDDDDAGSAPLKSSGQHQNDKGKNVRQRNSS

T2: WT mMCT1/mBSG complex (mouse, UniProt P53986 1-493)
T2 chain 1: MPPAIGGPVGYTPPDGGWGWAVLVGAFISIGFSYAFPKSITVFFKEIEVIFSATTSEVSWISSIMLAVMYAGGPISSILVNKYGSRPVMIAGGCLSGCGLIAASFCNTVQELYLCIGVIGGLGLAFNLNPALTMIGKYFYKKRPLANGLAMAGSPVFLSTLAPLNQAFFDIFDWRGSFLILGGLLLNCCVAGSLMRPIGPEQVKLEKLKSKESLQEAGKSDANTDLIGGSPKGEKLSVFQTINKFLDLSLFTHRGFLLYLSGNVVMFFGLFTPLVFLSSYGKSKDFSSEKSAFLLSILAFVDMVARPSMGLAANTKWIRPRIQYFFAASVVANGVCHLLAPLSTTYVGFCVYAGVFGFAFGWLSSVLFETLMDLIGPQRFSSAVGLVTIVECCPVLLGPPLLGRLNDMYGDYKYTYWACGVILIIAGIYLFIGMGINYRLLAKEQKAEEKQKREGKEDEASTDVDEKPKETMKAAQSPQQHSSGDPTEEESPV
T2 chain 2: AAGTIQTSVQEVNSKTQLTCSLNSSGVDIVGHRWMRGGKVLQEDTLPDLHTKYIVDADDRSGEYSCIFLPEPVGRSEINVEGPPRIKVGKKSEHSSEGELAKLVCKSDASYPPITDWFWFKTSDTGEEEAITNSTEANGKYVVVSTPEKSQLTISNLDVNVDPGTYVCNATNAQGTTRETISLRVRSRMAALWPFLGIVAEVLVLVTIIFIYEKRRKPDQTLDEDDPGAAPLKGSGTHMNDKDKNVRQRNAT


Legend:
Assay in all cases: BLI
hMCT1/hBSG [1] = biological target: T1, hMCT1/hBSG
hMCT1/hBSG [2] = biological target: T1, hMCT1/hBSG
WT mMCT1/mBSG complex = biological target: T2, WT mMCT1/mBSG complex

Kd (hMCT1/hBSG [1]) [nM]	koff (hMCT1/hBSG [2]) [s⁻¹]	Kd (WT mMCT1/mBSG complex) [nM]	Binder
4.41	0.000183	–	6E7F1 monoclonal antibody (antibody, V domains shown, Full-length hMCT1 with hBSG isoform 2 (limits not given; signal peptide 1-21 removed by convention); Ig-domain disulfides; N-glycosylated BSG if expressed in mammalian cells) VH: QVQLQQPGAELVKPGASVNLSCKASGYTFTNYWIHWVKQRPGQGLEWIGMIHPNSGTINYNEKFKTKATLTVDKSSSTAYMQLSSLTSEDSAVYYCARVGTGSLDYWGQGTSVTVSS VL: DIVMTQSPATLSVTPGDRVSLSCRASQSISDYLHWYQQKSHESPRLLIKYVSQSISGIPSRFSGSGSGSYFTLSIDSVEPEDVGVYYCQNGHRFPYTFGGGTKLEIK
–	–	0.421	6E7F1 monoclonal antibody (antibody, V domains shown) VH: QVQLQQPGAELVKPGASVNLSCKASGYTFTNYWIHWVKQRPGQGLEWIGMIHPNSGTINYNEKFKTKATLTVDKSSSTAYMQLSSLTSEDSAVYYCARVGTGSLDYWGQGTSVTVSS VL: DIVMTQSPATLSVTPGDRVSLSCRASQSISDYLHWYQQKSHESPRLLIKYVSQSISGIPSRFSGSGSGSYFTLSIDSVEPEDVGVYYCQNGHRFPYTFGGGTKLEIK

Source: publication PMC12053622 (2025)
